According to the RNAGym collection of RNA variant scans (doi:10.7554/elife.90254):

B1: LINE1-full (parent)
chain: UACGUAGGUGGUUUUCCCCUGAUAGUGCUAAGGGGGCCUGGAAGUUUGGACUGGGCAGAGCUCAACACAGCGUGGCAAAGUGGCUGUGGCUAGACUGCCUCUCUGGAUUCCUCGUCACUCAGCAGGGCAUCUCUGAGAGAAAUGCC

Variants of: B1
Assay: self-cleavage, relative activity (ratio to wild type); higher = more cleavage; in vitro, sequencing; the parent is a self-cleaving ribozyme

| Variant | self-cleavage |
| --- | --- |
| UACGUAGGUGGUUUUCCCCUGAUAGUGCUAAGGGGGCCUGGAAGAUUGGACUGGGCAGAGCUCAACACAGCGUGGCAAAGUGGCUGUGCCUAGACUGCCUCUCUGGAUUCCUCGUCACUCAGCAGGGCAUCUCUGAGAGAAAUGCC [U45A G89C] | 0.31 |
| UACGUAGGUGGUUUUCCCCUGAUAGUGCUAAGGGGGCCUGGAAGAUUGGACUGGGCAGAGCUCAACACAGCGUGGCAAAGUGGCUGUGGCUAGACUGCCUCUCUGGAUUCCUCGUCACUCAGCAGGGCAUCUCUGAUAGAAAUGCC [U45A G137U] | 1.77 |
| UACGUAGGUGGUUUUCCCCUGAUAGUGCUAAGGGGGCCUGGAAGAUUGGACUGGGCAGAGCUCAACACAGCGUGGCAAAGUGGCUGUGGCUAGACUGCCUCUCUGGAUUCCUCGUCACUCAGCAGGGCAUCUCUGAGAGAAAAGCC [U45A U143A] | 1.21 |
| UACGUAGGUGGUUUUCCCCUGAUAGUGCUAAGGGGGCCUGGAAGAUUGGACUGGGCAGAGCUCAACACAGCGUGGCAAAGUGGCAGUGGCUAGACUGCCUCUCUGGAUUCCUCGUCACUCAGCAGGGCAUCUCUGAGAGAAAUGCC [U45A U85A] | 0.06 |
| UACGUAGGUGGUUUUCCCCUGAUAGUGCUAAGGGGGCCUGGAAGCUUGGACUGGGCAGAGCUCACCACAGCGUGGCAAAGUGGCUGUGGCUAGACUGCCUCUCUGGAUUCCUCGUCACUCAGCAGGGCAUCUCUGAGAGAAAUGCC [U45C A65C] | 0.08 |
| UACGUAGGUGGUUUUCCCCUGAUAGUGCUAAGGGGGCCUGGAAGCUUGGACUGGGCAGAGCUCAACUCAGCGUGGCAAAGUGGCUGUGGCUAGACUGCCUCUCUGGAUUCCUCGUCACUCAGCAGGGCAUCUCUGAGAGAAAUGCC [U45C A67U] | 0.12 |
| UACGUAGGUGGUUUUCCCCUGAUAGUGCUAAGGGGGCCUGGAAGAUUGGACUGGGCAGAGCUCAACACAGCGUGGCAAAGUGGCUGUGGCUAGACUGCCUCUCUGGACUCCUCGUCACUCAGCAGGGCAUCUCUGAGAGAAAUGCC [U45A U108C] | 1.48 |
| UACGUAGGUGGUUUUCCCCUGAUAGUGCUAAGGGGGCCUGGAAGAUUGGACUGGGCAGAACUCAACACAGCGUGGCAAAGUGGCUGUGGCUAGACUGCCUCUCUGGAUUCCUCGUCACUCAGCAGGGCAUCUCUGAGAGAAAUGCC [U45A G60A] | 0.03 |
| UACGUAGGUGGUUUUCCCCUGAUAGUGCUAAGGGGGCCUGGAAGCUUGGACUGGGCGGAGCUCAACACAGCGUGGCAAAGUGGCUGUGGCUAGACUGCCUCUCUGGAUUCCUCGUCACUCAGCAGGGCAUCUCUGAGAGAAAUGCC [U45C A57G] | 0.7 |
| UACGUAGGUGGUUUUCCCCUGAUAGUGCUAAGGGGGCCUGGAAGCUUGGACUGGGCUGAGCUCAACACAGCGUGGCAAAGUGGCUGUGGCUAGACUGCCUCUCUGGAUUCCUCGUCACUCAGCAGGGCAUCUCUGAGAGAAAUGCC [U45C A57U] | 0.11 |
| UACGUAGGUGGUUUUCCCCUGAUAGUGCUAAGGGGGCCUGGAAGCUUGGACUGGGCAGAGCUCGACACAGCGUGGCAAAGUGGCUGUGGCUAGACUGCCUCUCUGGAUUCCUCGUCACUCAGCAGGGCAUCUCUGAGAGAAAUGCC [U45C A64G] | 0.22 |
| UACGUAGGUGGUUUUCCCCUGAUAGUGCUAAGGGGGCCUGGAAGAUUGGACUGGGCAGAGCUCAACACAGCGUGGCAAAGUGGCUGUGGCUAGACUGCCUCUCUGGAUUCCCCGUCACUCAGCAGGGCAUCUCUGAGAGAAAUGCC [U45A U112C] | 1.36 |
| UACGUAGGUGGUUUUCCCCUGAUAGUGCUAAGGGGGCCUGGAAGAUUGGACUGGGCAGAGCUCAACACAGCGUGGCAAAGUGGCUGUGGCUAGACUGCCUCUCUGGAUUCCUCGUCACUCAGCAGGGCAUCUCUGGGAGAAAUGCC [U45A A136G] | 2 |
| UACGUAGGUGGUUUUCCCCUGAUAGUGCUAAGGGGGCCUGGAAGAUUGGACUGGGCAGAGCUCAACACAGCGUGGCAAAGUGGCUGUGGCUAGACUGCCUCUCUGGAUUCCUCGUCACUCAGCAGGGCAUCCCUGAGAGAAAUGCC [U45A U132C] | 1.93 |
| UACGUAGGUGGUUUUCCCCUGAUAGUGCUAAGGGGGCCUGGAAGAUUGGACUGGGCAGAGCUCAACACAGCGUGGCAAAGUGGCUGUGGCUAGACUGCCUCUCUGGAUUCCUCGUCACUCAGCAGGGCGUCUCUGAGAGAAAUGCC [U45A A129G] | 1.26 |
| UACGUAGGUGGUUUUCCCCUGAUAGUGCUAAGGGGGCCUGGAAGCUUGGACUGGGCAGAGCUCAACACAGCGUGGCAAAGUGGCUGUGGCUAGACUGCCUCUCUGGAUUCCUCGUCACUCAGCAGGGCAUCUCUGAGAGAAAUGCC [U45C] | 1.36 |
| UACGUAGGUGGUUUUCCCCUGAUAGUGCUAAGGGGGCCUGGAAGAUUGGACUGGGCAGAGCUCAACACAGCGUGGCAAAGUGGCUGUGGCUAGACUGCCUCUCUGGAUUCCUCUUCACUCAGCAGGGCAUCUCUGAGAGAAAUGCC [U45A G114U] | 1.46 |
| UACGUAGGUGGUUUUCCCCUGAUAGUGCUAAGGGGGCCUGGAAGCUUGGACUGGGCAGAGCUCAACACAGCGUGGCAACGUGGCUGUGGCUAGACUGCCUCUCUGGAUUCCUCGUCACUCAGCAGGGCAUCUCUGAGAGAAAUGCC [U45C A79C] | 1.23 |
| UACGUAGGUGGUUUUCCCCUGAUAGUGCUAAGGGGGCCUGGAAGAUUGGACUGGGCAGAGCCCAACACAGCGUGGCAAAGUGGCUGUGGCUAGACUGCCUCUCUGGAUUCCUCGUCACUCAGCAGGGCAUCUCUGAGAGAAAUGCC [U45A U62C] | 0.03 |
| UACGUAGGUGGUUUUCCCCUGAUAGUGCUAAGGGGGCCUGGAAGAUUGGACUGGGCAGAGCACAACACAGCGUGGCAAAGUGGCUGUGGCUAGACUGCCUCUCUGGAUUCCUCGUCACUCAGCAGGGCAUCUCUGAGAGAAAUGCC [U45A U62A] | 0 |

| Variant | self-cleavage |
| --- | --- |
| UACGUAGGUGGUUUUCCCCUGAUAGUGCUAAGGGGGCCUGGAAGAUUGGACUGGGCAGAGCUCAACACAGCGUGGCAAAGUGGCUGAGGCUAGACUGCCUCUCUGGAUUCCUCGUCACUCAGCAGGGCAUCUCUGAGAGAAAUGCC [U45A U87A] | 0.09 |
| UACGUAGGUGGUUUUCCCCUGAUAGUGCUAAGGGGGCCUGGAAGAUUGGACUGGGCAGAGCUCAACACAGCGUGGCAAAGUGGCUGUGGCUAGACUGCCUCUCUGGAUUCCUCGUCACUCGGCAGGGCAUCUCUGAGAGAAAUGCC [U45A A121G] | 1.88 |
| UACGUAGGUGGUUUUCCCCUGAUAGUGCUAAGGGGGCCUGGAAGAUUGGACUGGGCAGAGCUCAACACAGCGUGGCAAAGUGGCUGUGGCUAGACUGCCUCUCUGGAUUCCUCGUCACUCUGCAGGGCAUCUCUGAGAGAAAUGCC [U45A A121U] | 0.99 |
| UACGUAGGUGGUUUUCCCCUGAUAGUGCUAAGGGGGCCUGGAAGAUUGGACUGGGCAGAGCUCAACACAGCGUGGCAAAGUGGCUGUGGCUAGACUGCCUCUCUGGAUUCCUCGUCACUCCGCAGGGCAUCUCUGAGAGAAAUGCC [U45A A121C] | 1.62 |
| UACGUAGGUGGUUUUCCCCUGAUAGUGCUAAGGGGGCCUGGAAGAUUGGACCGGGCAGAGCUCAACACAGCGUGGCAAAGUGGCUGUGGCUAGACUGCCUCUCUGGAUUCCUCGUCACUCAGCAGGGCAUCUCUGAGAGAAAUGCC [U45A U52C] | 1.46 |
| UACGUAGGUGGUUUUCCCCUGAUAGUGCUAAGGGGGCCUGGAAGAUUGGACUGGGCAGAGCUCAACACAGCGUGGCAAAGUGGCUGUGGCUAGACUGCCUCUCUGGAUUCCUCGUCACUCAGCAGGGCAUCUCUGAGAGAAGUGCC [U45A A142G] | 1.55 |
| UACGUAGGUGGUUUUCCCCUGAUAGUGCUAAGGGGGCCUGGAAGAUUGGACUGGGCAGAGCUCAACACAGCGUGGCAAAGUGGCUGUGGCUAGACUGCCUCUCUGGAUUCCUCGUCACUCAGCAGGGCAUCUCUGAGAGAAAUGCU [U45A C146U] | 1.37 |
| UACGUAGGUGGUUUUCCCCUGAUAGUGCUAAGGGGGCCUGGAAGAUUGGACUGGGCAGAGCUCAACACAGCGUGGCAAAGUGGCUGUGGCAAGACUGCCUCUCUGGAUUCCUCGUCACUCAGCAGGGCAUCUCUGAGAGAAAUGCC [U45A U91A] | 0.46 |
| UACGUAGGUGGUUUUCCCCUGAUAGUGCUAAGGGGGCCUGGAAGCUUGGACUGGGCAGGGCUCAACACAGCGUGGCAAAGUGGCUGUGGCUAGACUGCCUCUCUGGAUUCCUCGUCACUCAGCAGGGCAUCUCUGAGAGAAAUGCC [U45C A59G] | 0.1 |
| UACGUAGGUGGUUUUCCCCUGAUAGUGCUAAGGGGGCCUGGAAGCUUGGACUGGGCAGAGCUCAACACAGCGUGGCGAAGUGGCUGUGGCUAGACUGCCUCUCUGGAUUCCUCGUCACUCAGCAGGGCAUCUCUGAGAGAAAUGCC [U45C A77G] | 2.62 |
| UACGUAGGUGGUUUUCCCCUGAUAGUGCUAAGGGGGCCUGGAAGCUUGGACUGGGCAGAGCUCAACACAGCGUGGCAGAGUGGCUGUGGCUAGACUGCCUCUCUGGAUUCCUCGUCACUCAGCAGGGCAUCUCUGAGAGAAAUGCC [U45C A78G] | 1.31 |
| UACGUAGGUGGUUUUCCCCUGAUAGUGCUAAGGGGGCCUGGAAGAUUGGACUGGGCAGAGCUCAACACAGCGUGGCAAAGUGGCUGUGGCUAGACUGCCUCUCUGGAUUCCUCGUCACUCAGCAGGGCAACUCUGAGAGAAAUGCC [U45A U130A] | 1.38 |
| UACGUAGGUGGUUUUCCCCUGAUAGUGCUAAGGGGGCCUGGAAGAUUGGACUGGGCAGAGCUCAACACAGCGUGGCAAAGUGGCUGUGGCUAGACUGCCUCUCUGGAUUCCUCGUCACUCAGCAGGGCAUCUCAGAGAGAAAUGCC [U45A U134A] | 1.11 |
| UACGUAGGUGGUUUUCCCCUGAUAGUGCUAAGGGGGCCUGGAAGAUUGGACUGGGCAGAGCUCAACACAGCGUGGCAAAGUGGCUGUGGCUAGACUGCCUCUCUGGAUUCCUCGUCACUCAGCAGGGCAUCUCCGAGAGAAAUGCC [U45A U134C] | 1.49 |
| UACGUAGGUGGUUUUCCCCUGAUAGUGCUAAGGGGGCCUGGAAGAUUGGACUGGGCAGAGCUCAACACAGCGUGGCAAAGUGGCUGUGGCUAGACUGCCUCUCUGGAUUCCUCGUCACUCAGCGGGGCAUCUCUGAGAGAAAUGCC [U45A A124G] | 0.41 |
| UACGUAGGUGGUUUUCCCCUGAUAGUGCUAAGGGGGCCUGGAAGAUUGGACUGGGCAGAGCUCAACACAGCGUGGCAAAGUGGCUGUGGCUAGACUGCCUCUCUGGAUUCCUCGUCACUCAGCAGGGCAUCUCUGAGAGAGAUGCC [U45A A141G] | 1.06 |
| UACGUAGGUGGUUUUCCCCUGAUAGUGCUAAGGGGGCCUGGAAGAUUGGACUGGGCAGAGCUCAACACAGCGUGGCAAAGUGGCUGUGGCUAGACUGCCUCUCUGGAUUCCUCGUCGCUCAGCAGGGCAUCUCUGAGAGAAAUGCC [U45A A117G] | 1.48 |
| UACGUAGGUGGUUUUCCCCUGAUAGUGCUAAGGGGGCCUGGAAGAUUGGACUGGGCAGAGCUCAACACAGCGUGGCAAAGUGGCUGUGGCUAGACUGCCUCUCUGGAUUCCUCGUCUCUCAGCAGGGCAUCUCUGAGAGAAAUGCC [U45A A117U] | 0.76 |
| UACGUAGGUGGUUUUCCCCUGAUAGUGCUAAGGGGGCCUGGAAGAUUGGACUGGGCAGAGCUCAACACAGCGUGGCAAAGUGGCUGUGGCUAGACUGCCUCUCUGGAUACCUCGUCACUCAGCAGGGCAUCUCUGAGAGAAAUGCC [U45A U109A] | 0.94 |
